Reference: paper PMC9470594, “Paternal imprinting of dosage-effect defective1 contributes to seed weight xenia in maize”

Biological target: DED1 (R2R3-MYB), GST fusion (Zea mays, UniProt A0A804M0V9 1-450)
Test: EMSA; 5 mM Mg2+; EMSA: 50 ng DED1-GST, 6 ng probe in 20 uL 10 mM Tris pH 7.5, 50 mM KCl, 1 mM DTT, 2.5% glycerol, 5 mM MgCl2, 50 ug/uL (so in the source) poly(dI-dC), 0.05% NP-40, 25
Conditions: protein: recombinant; tags: GST (N-terminal, pGEX-4T-1); label: biotin 3' end on one strand; blunt

Chain of DED1 (R2R3-MYB), GST fusion (A0A804M0V9 entry or part of it): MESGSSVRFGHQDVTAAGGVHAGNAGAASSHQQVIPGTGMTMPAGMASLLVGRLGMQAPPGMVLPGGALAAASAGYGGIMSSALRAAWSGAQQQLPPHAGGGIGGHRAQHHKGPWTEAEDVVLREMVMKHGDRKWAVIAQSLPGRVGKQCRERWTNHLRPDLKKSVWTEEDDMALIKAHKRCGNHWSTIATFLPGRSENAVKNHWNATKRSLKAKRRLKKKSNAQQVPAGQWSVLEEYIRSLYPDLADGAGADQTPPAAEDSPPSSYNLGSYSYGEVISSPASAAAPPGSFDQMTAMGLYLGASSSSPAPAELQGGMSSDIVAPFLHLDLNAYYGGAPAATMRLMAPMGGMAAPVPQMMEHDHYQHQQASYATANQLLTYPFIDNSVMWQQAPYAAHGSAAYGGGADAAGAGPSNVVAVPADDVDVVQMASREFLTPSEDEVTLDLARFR

Binder | binding result
vp1 promoter probe (dsDNA) DNA 1: GTCCTTGAAACTGCAATCCAAATCTACGCAACCGTTTTGCATGCCACTGTTTGTA DNA 2: TACAAACAGTGGCATGCAAAACGGTTGCGTAGATTTGGATTGCAGTTTCAAGGAC | binds
sus1 promoter probe (dsDNA) DNA 1: CTGAACCGTTTTTCGGTTTCAGTTTTCTCTGCTGACTGAAGCTTC DNA 2: GAAGCTTCAGTCAGCAGAGAAAACTGAAACCGAAAAACGGTTCAG | binds
c1 promoter probe (dsDNA) DNA 1: CATCATTCGATCAGTTTTCGTTCTGATGCAGTTTTCGATAAATGC DNA 2: GCATTTATCGAAAACTGCATCAGAACGAAAACTGATCGAATGATG | binds
fl3 promoter probe (dsDNA) DNA 1: TGTACAAATATTTCTACTGACAGTTTTTAAGAAACCACCTGTGGA DNA 2: TCCACAGGTGGTTTCTTAAAAACTGTCAGTAGAAATATTTGTACA | binds
